Reference: the DeepSol protein solubility set

test: soluble on expression in E. coli; label from the status in PepcDB or PDB records

Sequence	soluble on expression in E. coli
MQIVSVDIGSTWTKAALFTREGDALTLVNHVLTPTTTHHLAKGFFSSLNQVLNVDNALPLLNSGEVALKYSSSAKGGLAVAAMGLVPSITLETAKVTAHSAGAKIAQYYAYKLNRRDIQALEETQPDILLFTGGTDGGEESYGLNNARVLAESKLDCAIIYAGNRDIQDEVQEILGHKDLTIVDNVLPDLDHPNPVAARQAICDIFLKRIVKGKGLDVIVDKTGEEPMPTPWTVFELVKAISNVDHSWKEFMLIDMGGATTDVYSACANTLSPDTVLHGVPEPFVKRTVEGDLGMRVSAVVVGESAKELVNVNFAQQPAQLDAFYHYLRHLVAHPDYLPANAEEKYFDTVLAGLCVGYATERHAGTKKEVCTCVGNVDLQMGRDLTTVRKVVGSGGWLSRASQFDMHHWLKYRELNDDGKRILLPTEFEYYRDSRGLLPLLANVARVDPLAAARTSIQCLTL	not soluble
MQKEPRKVREFRRREQEILDTALKLFLEQGEDSVTVEMIADAVGIGKGTIYKHFKSKAEIYLRLMLDYERDLNELLHSADVDKDKEALSRAYFEFRMRDPQRYRLFDRLEEKVVKGNQVPELVEELHKIRASNFEHLTLLIKGRITEGKLEDVPPYYHYCAAWALVHGAVALYHSPFWSNVLEDQEGFFNFLMDIGVRMGNKRKRDTDVPAEPKPDPDV	not soluble
MQKSVLITGCSSGIGLDSALELKRQGFQILAGCRKPDDVARMNSMGFTGVLIDLDSPESVDRAADEVIALTDNRLYGIFNNAGYGVYGPLSTISREQMEQQFSSNFFGAHQLTMRLLPAMLPHGEGRIVMTSSVMGLISTPGRGAYAASKYALEAWSDALRMELRHTGIKVSLIEPGPIRTRFTDNVNQTQRDKPVENPGIAARFTRDPDAVVAKVRHAFASDKPRLRYPVTLVTWAVMALKRILPGRMLDKILQS	not soluble
MQLDPGRGYDLIGDVHGCAHTLDRLLDLLGYRLQGGVWRHPRRQALFLGDIVDRGPRIREALHRVHAMVDAGEALCIMGNHEFNALGWSTPAAPGSGRQYVREHTPRHARLIKETLEQFEGHDADWRDFLGWFQQLPLFLDAGRFRMVHACWDGELIATLRRQFPDGRISEAFLQESAEPGSFADLACNRLLRGTDMRLPHGATLTSSDGYTRAFFRTKFWVEDEAPRTYGDIVFQPDALPEAIAREPLSEEQKSSLLTYGADEPLLFVGHYWRRGTPAPIRPNLACLDYSAVMYGKLAAYRLDEETRLDRHKFVWVEVKRPEADE	soluble
MQLQKLVNMFGGDLTRRYGQKVHKLTLHGGFSCPNRDGTIGRGGCTFCNVASFADEAQQHRSIAEQLAHQANLVNRAKRYLAYFQAYTSTFAEVQVLRSMYQQAVSQANIVGLCVGTRPDCVPDAVLDLLCEYKDQGYEVWLELGLQTAHDKTLHRINRGHDFACYQRTTQLARQRGLKVCSHLIVGLPGEGQAECLQTLERVVETGVDGIKLHPLHIVKGSIMAKAWEAGRLNGIELEDYTLTAGEMIRHTPPEVIYHRISASARRPTLLAPLWCENRWTGMVELDRYLNEHGVQGSALGRPWLPPTE	soluble
MQLSHRPAETGDLETVAGFPQDRDELFYCYPKAIWPFSVAQLAAAIAERRGSTVAVHDGQVLGFANFYQWQHGDFCALGNMMVAPAARGLGVARYLIGVMENLAREQYKARLMKISCFNANAAGLLLYTQLGYQPRAIAERHDPDGRRVALIQMDKPLEP	soluble
MQLSKALSLRRVLNSGFHPFQVIPKPDVWMKRERLNRFTAWQYASERSTVKGAYRKEDKIFAYLNMQRQDERNLEKFHAEERVRTALEEHDMEYSKFKSILSQSHILLDNICLSQLAIYEPRSFRSLVAFAKELARQEGMNVIPDDAEFSYDVHVDNKSVLRKPLPRAVEYTRGASENHTNKPRKLREDEY	not soluble
MQMIHKEGWIEVICGSMFSGKSEELIRRVRRATYGRLKVQVFKPAIDNRYSEQEVVSHNGNKVCAIPVERAMSILEQWSEDTDIVAIDEVQFFDEDVIGVVDYLADHGVRVICAGLDQDFRGEPFEPTRTLMAMAEYVTKLQAICPVCGSPASRTQRLIDGKPASYHDPIILVGAAEAYEPRCRHCHQVTNKPSKLPETASSGELEHHHHHH	soluble
MQNRLTIKDIARLSGVGKSTVSRVLNNESGVSQLTRERVEAVMNQHGFSPSRSARAMRGQSDKVVAIIVTRLDSLSENLAVQTMLPAFYEQGYDPIMMESQFSPQLVAEHLGVLKRRNIDGVVLFGFTGITEEMLAHWQSSLVLLARDAKGFASVCYDDEGAIKILMQRLYDQGHRNISYLGVPHSDVTTGKRRHEAYLAFCKAHKLHPVAALPGLAMKQGYENVAKVITPETTALLCATDTLALGASKYLQEQRIDTLQLASVGNTPLMKFLHPEIVTVDPGYAEAGRQAACQLIAQVTGRSEPQQIIIPATLS	soluble
MQPELTKTPANFPLSPLGAVVILGDIPNPELLAIPLAPTPSTMFGPRGACLVAETGALWVSDTGHHRLLGWRKLPTTDSQPADWVIGQPDFYHEGQNAKGTPGRTTVSVPTGICVCGGGLAIADAWNHRVLIWHKIPEDSNVPADLVLGQRNFSENEPNRGKQSPDANTMHWPYGVAYHQGKLFVADTGNRRLLIWQQLPTENGQPADIVLGQPDMISRNENGGGSPTAGSMRWCHDIAFWDDNLVVTDAGNNRVMIWQGIPTENNAPCAVVLGQKSFDLVEMNQGVYFPSAGSLSMPYGVGATEDWLMVADTANSRLLGWRKRESILLLQGAIADGIIGQNSFQSKSENRHFGLPTRDSLNWCYGVKVCGSTAVISDSGNNRVLLWRFLLEHHHHHH	not soluble
MQPGYNGHGRGIYNFIGMTANRRSNLHNTVALDPDILTDTFQQCLFYQYAQCSILLMKEGATGFPFALYAPSTVSSYLYMR	not soluble
MQPTLGAQAGSMLFRDASGRYCASLAGYRFLSAFQPIFYKGGSLFGHEALLRVVDEGGEWRPPDRFLASLAPGMALEADRLARLIHVRNFAQSGQGGCLCLNLMPATVQEDQSGRTHLPLLNSMLQSVELDSGGVIFELPEFDVEHHGQPLLQGMRHAADMGFGLAVDDFGALPARRDKMGELCPDIIKIDRSLLLDYMAGQTQRLPALLEFGWQIGSRMLVEGIETAEQLEAMRALGVELYQGYYLGRPGELPVLRQL	not soluble
MQPYWAAIEADIERYLKKSITIRPPETVFGPMHHLTFAAPATAASTLCLAACELVGGDRSQAMAAAAAIHLVHAAAYVHEHLPLTDGSRPVSKPAIQHKYGPNVELLTGDGIVPFGFELLAGSVDPARTDDPDRILRVIIEISRAGGPEGMISGLHREEEIVDGNTSLDFIEYVCKKKYGEMHACGAACGAILGGAAEEEIQKLRNFGLYQGTLRGMMEMKNSHQLIDENIIGKLKELALEELGGFHGKNAELMSSLVAEPSLYAAHHHHHHHH	soluble
MQQLINSLFMEAFANPWLAEQEDQARLDLAQLVAEGDRLAFSTDSYVIDPLFFPGGNIGKLAICGTANDVAVSGAIPRYLSCGFILEEGLPMETLKAVVTSMAETARAAGIAIVTGDTKVVQRGAVDKLFINTAGMGAIPANIHWGAQTLTAGDVLLVSGTLGDHGATILNLREQLGLDGELVSDCAVLTPLIQTLRDIPGVKALRDATRGGVNAVVHEFAAACGCGIELSEAALPVKPAVRGVCELLGLDALNFANEGKLVIAVERNAAEQVLAALHSHPLGKDAALIGEVVERKGVRLAGLYGVKRTLDLPHAEPLPRIC	not soluble
MQRETVWLVEDEQGIADTLVYMLQQEGFAVEVFERGLPVLDKARKQVPDVMILDVGLPDISGFELCRQLLALHPALPVLFLTARSEEVDRLLGLEIGADDYVAKPFSPREVCARVRTLLRRVKKFSTPSPVIRIGHFELNEPAAQISWFDTPLALTRYEFLLLKTLLKSPGRVWSRQQLMDSVWEDAQDTYDRTVDTHIKTLRAKLRAINPDLSPINTHRGMGYSLRGL	soluble
MQRGIVWVVDDDSSIRWVLERALAGAGLTCTTFENGNEVLAALASKTPDVLLSDIRMPGMDGLALLKQIKQRHPMLPVIIMTAHSDLDAAVSAYQQGAFDYLPKPFDIDEAVALVERAISHYQE	soluble
MQRMAKMKAMEKHHGYKVLTMIHRREMISLFGLPAYQSIDEEDAEQVLRWIRKYRDYPLELILHTPGGQLHASIQIARALKNHPKKTRVLIPHYSMSGGTIIALAADEIVMDKDAVIGPIDPQVGDPIRGVFPAPSWIHAAETKKEDADDSTLVMSDISRKALRLTRNVAKELLEGKIQPDGKEDRLEEVVEKLVSGEMIHSTPLSAREAKELGLSVNTDFPEDVHDFMRLFRPVKKTVEYVG	not soluble
MQRTGELPAEHVPVILESSGAGDFHLIDSGNGLKLEQYGDYRVVRPEAQALWRPLVPDRVWQNADAIFTGDTDEDGMGRWRFPKEALGETWPLSLLGVEFLGRFTAFRHVGVFPEQIVHWEWLKNAVETADRPLKVLNLFGYTGVASLVAAAAGAEVTHVDASKKAIGWAKENQVLAGLEQAPIRWICEDAMKFIQREERRGSTYDIILTDPPKFGRGTHGEVWQLFDHLPLMLDICREILSPKALGLVLTAYSIRASFYSMHELMRETMRGAGGVVASGELVIREAGLDGKTPGRVLSTSLFSRWEPK	soluble
MQSRQRLLISVLAAGESRRFQGAKLAQSLATSTSEDRGQSLLQRHIACLANFIVSPNDRRESLGALDAELLVVIGAHQTLLRPQLEALGAVKLTLLDNPHWRTGLASSLGVAAAYAKVHQFDGMLLTLADQVALTLNDYRQLIETWQNCRKSVAAHYSSQIGELDELGAPAIFNASILDSLTDLTGDRGAKSILKQLAYVGELEAVALPNAAIDIDTKADLALWLALKELEHHHHHH	not soluble
MQTFFIAPTDFGVGLTSISLGLVRTLERAGLKVGFFKPIAQPHPGDLGPERSTELMARTHGLKPPKPLGLAHVERMLGDGQLDELLEEIINLYQQAAVGKDVLVVEGMVPTRSASYAARVNLHLAKSLDAEVILVSAPENEVLTELSGRVELQAQLFGGPKDPKVLGVILNKVRTEESMEVFAARLKEHSPLLRNGDFRLLGCIPYRAELNAPRTRDVAELLGAQ	not soluble
MQTKKAFLYVFNTMSDWEYGYLIAELNSGRYFKKDLAPLKVITVGANKEMITTMGGLRIKPDISLDECTLESKDLLILPGGTTWSEEIHQPILERIGQALKIGTIVAAICGATDALANMGYLDTRKHTSNNLEYTKMVCPNYKGEKFYELGPAVSDANLVTASGIAPLEFAMEVLKKIDVFTLDALHSWYNLNKTHKPEYFFQLMNSINK	not soluble
MQTNLLSRPTSAKSTSMSDKINHPQLCQWLESVAISRDKQAFTHLFQFFAPKILRIARGKFPNEAQANEVVQDTMSNVWRKAHLYNQDKGAATTWVYTVMRNVTFDMLRKIQGNKEDNLSDDIWPIAESMSIENEIFDDHLEHANLLSVIEELPQAQQDVVKGFYFREMSQEQLAVHLHLPLGTVKSRLRLALGKLKVQLGEKHD	not soluble
MQTSHSLPSAQLPLFQEAFWASNGAPLLDDVIDSPSSASIEEPAAFSELSLSGLPGHCLTLLAPILRELSEEQDARWLTLIAPPASLTHEWLRRAGLNRERILLLQAKDNAAALALSCEALRLGRSHTVVSWLEPLSRAARKQLSRAAQLGQAQSLNIRLG	soluble
MQTSIDPVFAGWDGSVAQARQLQQQLAQRVALRDEVSAAPALLAGFDVGFEDDGQTTRAAAVLLDAQTLLPLETHVARVPTSMPYVPGLLSFRELPALLRALALLARTPDLVFIDGQGIAHPRRFGIAAHFGVVTGLPSIGVAKQRLAGTFIEPGGERGDHSPILLAGAQIGWALRSKPRCNPLIVSPGHRVSMQGALDWTLRTLRAYRLPEPTRLADRLASRRGEIELQTQPTLLLEHHHHHH	not soluble
MQTVNNIISSVSTVESKAYRDAMSHYAGAVQIVTTAGAAGRRGLTLTAACSVSDNPPTILICLQKIHEENRIFIENGVFAINTLAGPHQQLADAFSGRIGLTQDERFELAAWEILATGAPVLKGALAAFDCRVVSVQDHSTHHVLFGEVVGLSSHAEEEALIYLNRRYHKLEL	soluble
